B1: SiaT18: sialyltransferase of Photobacterium leiognathi JT-SHIZ-119, acc. AB500947, SEQ ID NO: 28 (protein, listed as Photobacterium leiognathi)
chain: MCNDNQNTVDVVVSTVNDNVIENNTYQVKPIDTPTTFDSYSWIQTCGTPILKDDEKYSLSFDFVAPELDQDEKFCFEFTGDVDGKRYVTQTNLTVVAPTLEVYVDHASLPSLQQLMKIIQQKNEYSQNERFISWGRIGLTEDNAEKLNAHIYPLAGNNTSQELVDAVIDYADSKNRLNLELNTNTAHSFPNLAPILRIISSKSNILISNINLYDDGSAEYVNLYNWKDTEDKSVKLSDSFLVLKDYFNGISSEKPSGIYGRYNWHQLYNTSYYFLRKDYLTVEPQLHDLREYLGGSLKQMSWDGFSQLSKGDKELFLNIVGFDQEKLQQEYQQSELPNFVFTGTTTWAGGETKEYYAQQQVNVVNNAINETSPYYLGREHDLFFKGHPRGGIINDIILGSFNNMIDIPAKVSFEVLMMTGMLPDTVGGIASSLYFSIPAEKVSFIVFTSSDTITDREDALKSPLVQVMMTLGIVKEKDVLFWSDLPDCSSGVCIAQY
B2: SiaT6: sialyltransferase of Photobacterium sp. JT-ISH-224, acc. BAF92026, SEQ ID NO: 29 (protein, listed as Photobacterium sp.)
chain: MSEENTQSIIKNDINKTIIDEEYVNLEPINQSNISFTKHSWVQTCGTQQLLTEQNKESISLSVVAPRLDDDEKYCFDFNGVSNKGEKYITKVTLNVVAPSLEVYVDHASLPTLQQLMDIIKSEEENPTAQRYIAWGRIVPTDEQMKELNITSFALINNHTPADLVQEIVKQAQTKHRLNVKLSSNTAHSFDNLVPILKELNSFNNVTVTNIDLYDDGSAEYVNLYNWRDTLNKTDNLKIGKDYLEDVINGINEDTSNTGTSSVYNWQKLYPANYHFLRKDYLTLEPSLHELRDYIGDSLKQMQWDGFKKFNSKQQELFLSIVNFDKQKLQNEYNSSNLPNFVFTGTTVWAGNHEREYYAKQQINVINNAINESSPHYLGNSYDLFFKGHPGGGIINTLIMQNYPSMVDIPSKISFEVLMMTDMLPDAVAGIASSLYFTIPAEKIKFIVFTSTETITDRETALRSPLVQVMIKLGIVKEENVLFWADLPNCETGVCIAV

Key:
[1] = In vitro sialylation of LNT by protein extracts, LST-a/-b quantified by LC-MS/MS; type: biochemical; settings: for Relative efficacy of sialyltransferases regarding in-vitro production of sialyllacto-N-tetraoses: LST-b: 5 mM LNT, 10 mM CMP-Neu5Ac, 16 hours, LC-MS/MS, relative quantity, n.d.: not detectable; for Ranking in the screening for sialylation of LNT: in words
Summary of the method: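 E. coli BL21(DE3) crude extracts overexpressing sialyltransferases (IPTG 0.3 mM, 12–16 h at 30 °C) incubated 16 h with 5 mM LNT and 10 mM CMP-Neu5Ac in 50 mM Tris-HCl pH 7.5, 5 mM MgCl2. LST-a and LST-b measured by HILIC LC-MS/MS, MRM in ESI negative mode, against commercial standards.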

[2] = In vitro kinetics (Km, Vmax), donor substrate CMP-Neu5Ac; type: biochemical; settings: 30° C., pH7.5, protein extract
Protocol: (§1) To rank the best performing sialyltransferases, their Km values for donor and acceptor substrates were determined in vitro. Escherichia coli BL21(DE3) strain #287 was used for overproduction of the enzymes. Cells were incubated in 100 ml 2YT medium in shaking flasks supplemented with 100 μg m^−1 ampicillin at 30° C. until an OD600 of 0.3 was reached. Then, 0.3 mM IPTG was added and the incubation was continued for 12 to 16 hours. Cells were harvested by centrifugation and mechanically disrupted in a defined volume of 50 mM Tris-HCl pH7.5 using glass beads. The protein extract was kept on ice until the assay started. The in vitro assay was carried out in a total volume of 50 μl including 50 mM Tris-HCl pH7.5, 5 mM MgCl2 and varying concentrations of CMP-Neu5Ac (0.05-30 mM) as well as of lactose or LNT (0.1-50 mM). The assay started with the addition of 35 to 750 μg protein extract. After 1 to 10 minutes of incubation at 30° C., the assay was inactivated at 95° C. for 5 minutes. Product formation was determined by mass spectrometry. Data were evaluated using the enzyme kinetic module of SigmaPlot v12.5 to calculate Km and Vmax.
(§2) Their kinetic parameters for CMP-Neu5Ac and LNT as well as lactose are depicted in Table 6.

[3] = In vivo screening in E. coli #1363/#1730 with lactose as acceptor, sialyllactose identified by TLC; type: cell-based, Escherichia coli BL21(DE3); settings: for Production of sialyllactose in-vivo: 1.5 mM lactose, 72 to 96 hours, qualitative via TLC
Summary of the method: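 E. coli BL21(DE3) #1363/#1730 expressing sialyltransferases were grown at 30 °C in mineral salts medium with 2% glucose and induced with 0.3 mM IPTG. After 1 h, 1.5 mM lactose was added, plus 1.5 mM sialic acid for #1730, and incubation ran 72–96 h. Cell lysates were analysed by silica TLC with thymol staining.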

[4] = In vitro kinetics (Km, Vmax), acceptor substrate LNT; type: biochemical; settings: 30° C., pH7.5, protein extract
Protocol: as §1, §2

[5] = In vitro kinetics (Km, Vmax), acceptor substrate lactose; type: biochemical; settings: 30° C., pH7.5, protein extract
Protocol: as §1, §2

Molecule	Relative efficacy of sialyltransferases regarding in-vitro production of sialyllacto-N-tetraoses: LST-b [1]	Ranking in the screening for sialylation of LNT [1]	Km [2] [mM]	Vmax CMP-Neu5Ac [2] [µmol/min]	Production of sialyllactose in-vivo [3]	Km [4] [mM]	Vmax LNT [4] [µmol/min]	Km [5] [mM]	Vmax Lactose [5] [µmol/min]	Described activity confirmed in the lactose screening ([3]; in words)
B1	303	sialylate LNT most efficiently among the tested α-2,6-sialyltransferases	2.8	0.21	6′-SL	5.2	0.14	7.6	0.21	
B2	300	sialylate LNT most efficiently among the tested α-2,6-sialyltransferases	2	0.16	6′-SL	5.5	0.13	5.6	0.20	could be confirmed

Source: patent US12692524B2, “Sialyltransferases and their use in producing sialylated oligosaccharides” (Chr. Hansen A/S, priority 2017, dated 2026)
